Earlier results, collected in article PMC2652250.

Biological target: cardiac troponin I 147-163 (Homo sapiens) (UniProt P19429)
Experiment: NMR

Kd: 154 µM
Substance: cardiac troponin C (cNTnC) N-terminal domain (from UniProt P63316)
